This is an account of results in the supplement of paper PMC11246515.

A short description of this data set: total protein half-life in vivo (active degradation + dilution); higher = more stable protein.
Setting [1] is: E. coli NCM3722 delta-clpP, growth: N-lim chemostat, doubling time 6 h.
Where [2] appears, read: E. coli NCM3722 delta-hslV, growth: N-lim chemostat, doubling time 6 h.
The mark [3] stands for this setting: E. coli NCM3722 delta-lon, growth: N-lim chemostat, doubling time 6 h.
Where [4] appears, read: E. coli NCM3722 delta-smpB, growth: N-lim chemostat, doubling time 6 h.
The mark [5] stands for this setting: wild type E. coli NCM3722, growth: C-lim chemostat, doubling time 3 h.
The mark [6] stands for this setting: wild type E. coli NCM3722, growth: C-lim chemostat, doubling time 6 h.
Where [7] appears, read: wild type E. coli NCM3722, growth: C-lim chemostat, doubling time 12 h.
Setting [8] is: wild type E. coli NCM3722, growth: N-lim chemostat, doubling time 6 h.
The mark [9] stands for this setting: wild type E. coli NCM3722, growth: N-lim chemostat, doubling time 12 h.
Setting [10] is: wild type E. coli NCM3722, growth: P-lim chemostat, doubling time 6 h.
[11] abbreviates: wild type E. coli NCM3722, growth: P-lim chemostat, doubling time 12 h.
The mark [12] stands for this setting: E. coli NCM3722 delta-clpP delta-lon delta-hslV, growth: N-lim chemostat, doubling time 6 h.

± gives the standard deviation of the averaged measurements.

With “MIQKSKIKDLVVFTDENNSKYLNVLNDFLSYNINIIKVFRSIDDTKVMLIDTDYGKLILKVFSPKVKRNERFFKSLLKGDYYERLFEQTQKVRNEGLNTLNDFYLLAERKTLRFVHTYIMIIEYIDGIELCDMPDIDDALKNKIQQSINALHQHGMVSGDPHRGNFIIKNGEVRIIDLSGKRASAQRKAKDRIDLERHYGIKNEIRDLGYYLLVYRKKMRNFMRRLKGKPAR”, the “total protein half-life in vivo” value runs as follows: under setting [1], 6.73 ± 0.18 h; under setting [2], 5.7 ± 0.17 h; under setting [3], 6.35 ± 0.15 h; under setting [4], 6.04 ± 0.22 h; under setting [5], 3.31 ± 0.043 h; under setting [6], 5.885 ± 0.011 h. The “total protein half-life in vivo” value worked out at 9.9 ± 1 h under setting [7]; 5.86 ± 0.76 h under setting [8]; 12.09 ± 0.019 h under setting [9]; 5.84 ± 0.34 h under setting [10]; 11.8 ± 0.82 h under setting [11].
Turning to “MYYGFDIGGTKIALGVFDSGRQLQWEKRVPTPRDSYDAFLDAVCELVAEADQRFGCKGSVGIGIPGMPETEDGTLYAANVPAASGKPLRADLSARLDRDVRLDNDANCFALSEAWDDEFTQYPLVMGLILGTGVGGGLIFNGKPITGKSYITGEFGHMRLPVDALTMMGLDFPLRRCGCGQHGCIENYLSGRGFAWLYQHYYHQPLQAPEIIALYDQGDEQARAHVERYLDLLAVCLGNILTIVDPDLVVIGGGLSNFPAITTQLADRLPRHLLPVARVPRIERARHGDAGGMRGAAFLHLTD”, the “total protein half-life in vivo” value runs as follows: under setting [12], 4.42 ± 0.85 h; under setting [2], 3.76 ± 0.45 h; under setting [3], 4.37 ± 0.18 h; under setting [4], 4.06 ± 0.31 h; under setting [5], 2.86 ± 0.4 h; under setting [6], 4.98 ± 0.17 h. Besides, the “total protein half-life in vivo” value under setting [7] was 9.97 ± 0.28 h; the “total protein half-life in vivo” value under setting [8] is 3.9761 ± 0.0021 h; the “total protein half-life in vivo” value under setting [9] is 6.67 ± 1.1 h; the “total protein half-life in vivo” value under setting [10] came to 6.09 ± 0.9 h; the “total protein half-life in vivo” value under setting [11] was 11.7 ± 0.2 h.
With “MIVFSSLQIRRGVRVLLDNATATINPGQKVGLVGKNGCGKSTLLALLKNEISADGGSYTFPGSWQLAWVNQETPALPQAALEYVIDGDREYRQLEAQLHDANERNDGHAIATIHGKLDAIDAWSIRSRAASLLHGLGFSNEQLERPVSDFSGGWRMRLNLAQALICRSDLLLLDEPTNHLDLDAVIWLEKWLKSYQGTLILISHDRDFLDPIVDKIIHIEQQSMFEYTGNYSSFEVQRATRLAQQQAMYESQQERVAHLQSYIDRFRAKATKAKQAQSRIKMLERMELIAPAHVDNPFRFSFRAPESLPNPLLKMEKVSAGYGDRIILDSIKLNLVPGSRIGLLGRNGAGKSTLIKLLAGELAPVSGEIGLAKGIKLGYFAQHQLEYLRADESPIQHLARLAPQELEQKLRDYLGGFGFQGDKVTEETRRFSGGEKARLVLALIVWQRPNLLLLDEPTNHLDLDMRQALTEALIEFEGALVVVSHDRHLLRSTTDDLYLVHDRKVEPFDGDLEDYQQWLSDVQKQENQTDEAPKENANSAQARKDQKRREAELRAQTQPLRKEIARLEKEMEKLNAQLAQAEEKLGDSELYDQSRKAELTACLQQQASAKSGLEECEMAWLEAQEQLEQMLLEGQSN”, the “total protein half-life in vivo” value runs as follows: under setting [12], 6.02 ± 0.54 h; under setting [1], 4.89 ± 0.15 h; under setting [2], 2.697 ± 0.016 h; under setting [3], 3.16 ± 0.084 h; under setting [4], 2.95 ± 0.13 h; under setting [5], 2.39 ± 0.12 h. Further, the “total protein half-life in vivo” value came out at 4.3 ± 0.48 h under setting [6]; 6.5 ± 0.051 h under setting [7]; 2.95 ± 0.15 h under setting [8]; 3.94 ± 0.5 h under setting [9]; 3.58 ± 0.25 h under setting [10]; 6.36 ± 0.25 h under setting [11].
On to “MKIYLVGGAVRDALLGLPVKDRDWVVVGSTPQEMLDAGYQQVGRDFPVFLHPQTHEEYALARTERKSGSGYTGFTCYAAPDVTLEDDLKRRDLTINALAQDDNGEIIDPYNGLGDLQNRLLRHVSPAFGEDPLRVLRVARFAARYAHLGFRIADETLALMREMTHAGELEHLTPERVWKETESALTTRNPQVFFQVLRDCGALRVLFPEIDALFGVPAPAKWHPEIDTGIHTLMTLSMAAMLSPQVDVRFATLCHDLGKGLTPPELWPRHHGHGPAGVKLVEQLCQRLRVPNEIRDLARLVAEFHDLIHTFPMLNPKTIVKLFDSIDAWRKPQRVEQLALTSEADVRGRTGFESADYPQGRWLREAWEVAQSVPTKAVVEAGFKGVEIREELTRRRIAAVASWKEQRCPKPE”, for which the “total protein half-life in vivo” value reads like this: under setting [12], 4.23 ± 0.88 h; under setting [1], 3.75 ± 0.11 h; under setting [2], 3.29 ± 0.057 h; under setting [3], 3.79 ± 0.16 h; under setting [4], 3.37 ± 0.045 h; under setting [5], 2.96 ± 0.27 h. For the same sequence, the “total protein half-life in vivo” value under setting [6] turned out to be 5.06 ± 0.79 h; the “total protein half-life in vivo” value under setting [7] was 8.37 ± 0.69 h; the “total protein half-life in vivo” value under setting [8] worked out at 3.48 ± 0.28 h; the “total protein half-life in vivo” value under setting [9] came to 5.55 ± 0.2 h; the “total protein half-life in vivo” value under setting [10] was 5.114 ± 0.016 h; the “total protein half-life in vivo” value under setting [11] was determined as 9.86 ± 0.35 h.
Regarding “MVDKRESYTKEDLLASGRGELFGAKGPQLPAPNMLMMDRVVKMTETGGNFDKGYVEAELDINPDLWFFGCHFIGDPVMPGCLGLDAMWQLVGFYLGWLGGEGKGRALGVGEVKFTGQVLPTAKKVTYRIHFKRIVNRRLIMGLADGEVLVDGRLIYTASDLKVGLFQDTSAF [P0A6Q3]”, the “total protein half-life in vivo” value stood at 4.896 ± 0.032 h under setting [12]; 4.99 ± 0.2 h under setting [1]; 5.5 ± 0.67 h under setting [2]; 5.48 ± 0.64 h under setting [3]; 5.18 ± 0.13 h under setting [4]; 3.03 ± 0.035 h under setting [5]. Besides, the “total protein half-life in vivo” value amounted to 5.626 ± 0.038 h under setting [6]; 11.5 ± 1.6 h under setting [7]; 5.0372 ± 0.0034 h under setting [8]; 10.1 ± 0.12 h under setting [9]; 5.56 ± 0.57 h under setting [10]; 12.2 ± 0.94 h under setting [11].
Take “MHENQQPQTEAFELSAAEREAIEHEMHHYEDPRAASIEALKIVQKQRGWVPDGAIHAIADVLGIPASDVEGVATFYSQIFRQPVGRHVIRYCDSVVCHINGYQGIQAALEKKLNIKPGQTTFDGRFTLLPTCCLGNCDKGPNMMIDEDTHAHLTPEAIPELLERYK [P0AFD1]”: the “total protein half-life in vivo” value is, setting by setting: under setting [12], 5.62 ± 0.92 h; under setting [1], 5.62 ± 0.45 h; under setting [3], 5.97 ± 0.51 h; under setting [4], 6.57 ± 0.34 h; under setting [5], 2.65 ± 0.54 h; under setting [6], 4.79 ± 0.22 h. In addition, the “total protein half-life in vivo” value turned out to be 8.87 ± 1.4 h under setting [7]; 5.04 ± 0.18 h under setting [8]; 10.3 ± 0.36 h under setting [9]; 4.85 ± 0.61 h under setting [10]; 11 ± 0.14 h under setting [11].
With “MRVITLAGSPRFPSRSSSLLEYAREKLNGLDVEVYHWNLQNFAPEDLLYARFDSPALKTFTEQLQQADGLIVATPVYKAAYSGALKTLLDLLPERALQGKVVLPLATGGTVAHLLAVDYALKPVLSALKAQEILHGVFADDSQVIDYHHRPQFTPNLQTRLDTALETFWQALHRRDVQVPDLLSLRGNAHA”, the “total protein half-life in vivo” value turned out to be 4.66 ± 0.17 h under setting [12] and 1.83 h under setting [3].
Take “MKDVVDKCSTKGCAIDIGTVIDNDNCTSKFSRFFATREEAESFMTKLKELAAATSSADEGASVAYKIKDLEGQVELDAAFTFSCQAEMIIFELSLRSLA”: the “total protein half-life in vivo” value was 5.09 ± 0.21 h under setting [12]; 4.2 h under setting [1]; 2.6 ± 0.38 h under setting [2]; 2.85 ± 0.098 h under setting [3]; 2.09 ± 0.23 h under setting [4]; 2.11 ± 0.4 h under setting [5]. Also, the “total protein half-life in vivo” value reads like this: under setting [6], 4.95 ± 1.9 h; under setting [7], 5.78 ± 0.33 h; under setting [8], 2.26 ± 0.19 h; under setting [9], 3.38 ± 0.55 h; under setting [10], 4 ± 0.22 h; under setting [11], 7.6436 ± 0.0046 h.
